According to the RNAGym collection of RNA variant scans (doi:10.7554/elife.80360):

B1: HDV Ribozyme (parent)
chain: GGCCGGCAUGGUCCCAGCCUCCUCGCUGGCGCCGGCUGGGCAACAUUCCGAGGGGACCGUCCCCUCGGUAAUGGCGAAUGGGACCCA

Variants of: B1
Assay: self-cleavage, relative activity (ratio to wild type); higher = more cleavage; co-transcriptional

Variant	self-cleavage
GGCCGGCAUGGUCCCAGCCUCCUCGCUGGCGCCGGCAGGGCAACAUUCCGCGGGGACCGUCCCCUCGGUAAUGGCGAAUGGGACCCA	0.217
GGCCGGCAUGGUCCCACCCUCCUCGCUGGCGCCGGCUGGGCAACAUUCUGAGGGGACCGUCCCCUCGGUAAUGGCGAAUGGGACCCA	0.332
GGCCGGCAUGGUCCCAGCCUCCUCGCUGGCGCCGGCUGGGCAAUAUUCCGAGGGGACCGUCCCCUCGGUAGUGGCGAAUGGGACCCA	0.95
GGCCGGCAUGGUCCCAGCUUCCUCGCUGGCGCCGGCUGGGCAACAUUCCGAGGGGACCGUGCCCUCGGUAAUGGCGAAUGGGACCCA	0.176
UGCCGGCAUGGUCCCAGCCUCCUCGCUGGCGCCGGCUGGGCAACAUUCCGAGGGGACCGUCCCCUCGGUAAUGGCGAAUGCGACCCA	0.326
GGCCGGCAUGGUCCCAGCCUCCUCGCUCGCGCUGGCUGGGCAACAUUCCGAGGGGACCGUCCCCUCGGUAAUGGCGAAUGGGACCCA	0.232
GGCCGGCAUGGUCCCAACCUCCUCGCUGGCGCCGGCUGGGCAACAUUCCGAAGGGACCGUCCCCUCGGUAAUGGCGAAUGGGACCCA	0.831
GGCCGGCAUGGUCCCAGCCUCCUCGCUGGCGCCGGCUGGGCAACAUUCCGAGGGGUCCGUCCCCUCGGUAAUGUCGAAUGGGACCCA	0.718
GGCCGGCAUGGUCCCAGCCUCCUCGCUGGCGCCAGCUGGGCAACCUUCCGAGGGGACCGUCCCCUCGGUAAUGGCGAAUGGGACCCA	0.299
GGCCGGCAUGGUCCCAGCCUCCUCGCUGGCGCCGGCUGGGAAACAUUCCGAGGGGACCGUCCCCUCGGUAAUGGCGAAUUGGACCCA	0.187
GGACGGCAUGGUCCCAGCCUCCUCGCUGGCGCCGGCUGGGCAACAUUCCGAGGGGACCGUCCCCUCGGUAAUUGCGAAUGGGACCCA	0.111
GGCCGGCAUGGUCUCAGCCUCCUCGCUGGCGCCGUCUGGGCAACAUUCCGAGGGGACCGUCCCCUCGGUAAUGGCGAAUGGGACCCA	0.288
GGCCGGCAUGGUCCCAGCCUCCUCGCUGGCGCCGGCUGGGCAACAUACCGAGGGGACCAUCCCCUCGGUAAUGGCGAAUGGGACCCA	0.746
GGCCGGCAUGGUCCCAGCCUCCUCGCUGGCGCCGGCUGGGCAACAUUCCGAGGGGACCGUCCCCUCGGUAAUGGCAAAUGGGCCCCA	0.539
GGCCGGCAUGGUCCCAGCCUCCUCGCUGGCGCGGGCUGGGCAACAUUUCGAGGGGACCGUCCCCUCGGUAAUGGCGAAUGGGACCCA	0.13
GGCCGGCAUGGUCCCAGCCUCCUCGCUGGCGCCGGCUGGGCAACAUUUCGAGGGGACCGUCCCCUCGGUAAUAGCGAAUGGGACCCA	0.526
GGCCGGCAUGGUCCCAGCCUCCUCGCUGGCGCCGGCUGGGCAACAUUCCGAGGCGACCGUCCCCUCGGUAAUGGCGUAUGGGACCCA	0.695
GGCCGGCAUGGUCCCAGCCUCCUCGCUGGCGCCGGCUGGACAACAUUCCGAGGGGACCGUCCUCUCGGUAAUGGCGAAUGGGACCCA	0.895
GGCCGGCAUGGUCCCAGCCUGCUCGCUGGCGCCGGCUGGGCAACAUUCCGAGGGGACCGUCCCCUCGGUAAUGGCGAAUGGGUCCCA	0.0875
UGCCGGCAUGGUCCCAGCCUCCUCGCUGGGGCCGGCUGGGCAACAUUCCGAGGGGACCGUCCCCUCGGUAAUGGCGAAUGGGACCCA	0.282
GGCCGGCAUGGUCCCAGCCUCCUCGCUGGCGCCGGCUGGGCAACAUUCCGAGGGGACCGUGCCCUCGGUAAUGUCGAAUGGGACCCA	0.466
GGCCGGCAUGGUCCCAGCCUCCUCGCUGGCGCCGGCUGGGCAACAUUCCGAGGGGACCGACCCCUCGGUAAUGGCGAAUGGGAACCA	0.911

Variant	self-cleavage
GGCCGGCAUGGUCCCAGCCUCCUCGCUGGCGCCGGCUGGGCAACAUUCCGAGGGGACCGGCCCCGCGGUAAUGGCGAAUGGGACCCA	0.883
GGCCGGCAUGGUCCCAGCCUCCUCGCUGGCGCCGGUUGGGCAACAUUCCGAGGGGACCGUCCCCUCGGUAAUGGCUAAUGGGACCCA	1.05
GGCCGGCAUGGUCCCAGCCUCCUCGCAGGCGCCGGCUGGGCAACAUUCCGAGGGGACCGCCCCCUCGGUAAUGGCGAAUGGGACCCA	1.21
GGCCGGCAUGGUCCCAGCCUCCUCACUGGCGCCGGCUAGGCAACAUUCCGAGGGGACCGUCCCCUCGGUAAUGGCGAAUGGGACCCA	0.0536
GGCCGGCAUGGUCCCAGCCUCCUCGCUGGCGCCGGCUGGGUAACAUUCCGAGGGGACCGUCCCCUCGGUAAGGGCGAAUGGGACCCA	0.534
GGCCGGCAUGGUGCCAGCCUCCUCGCUGGCGCCGGCUGGGCAACAUUCCGAGGGCACCGUCCCCUCGGUAAUGGCGAAUGGGACCCA	0.135
GGCCGUCAUGGUCCCAGCCUCCUCGCUGGCGCCGGCUGGGCAACAUUCCGAGGGGACCGUCCCUUCGGUAAUGGCGAAUGGGACCCA	0.723
GGCCGGCAUGGUCCCAGCCUCCUCGCUGGAGCCGGCUGGGCAACAUUCCGAGGGGACCGUCCCCUCGGUAAUGGCGAAUGGGAACCA	0.295
GGCGGGCAUGGUCCCAGCCUCCUCGCUGGCGCCGGAUGGGCAACAUUCCGAGGGGACCGUCCCCUCGGUAAUGGCGAAUGGGACCCA	0.0241
GGCCGGCAUGGUCCCAGCCUCCUCGCUGGAGCCGGCUGGGCAACAUUCCGAGGGGACCGUCCCCUCGGUGAUGGCGAAUGGGACCCA	0.332
GGCCGGCAUGGUCCCAGCCUCCUCGCUGGAGCCGGCUGGGCAACAUUCCGAAGGGACCGUCCCCUCGGUAAUGGCGAAUGGGACCCA	0.522
GGCCGGCAUGGUCCCAGCCUCCUCGCUGGCGCCGGCUGGGCAACAUUCCGAGGGGACCGUCCCCUCGGUAAUGCCGAAUGGUACCCA	0.179
GGCCGGCAUGGUCCCAGCCUCCUCGUUGGCGCCGGCUGGGCAACAUUCCGAGGGGACCGUCCCCUCGGUAAUGGCGAAUGGGACCAA	0.99
GGCCGGCAUGGUCCCAGCCUCCUCGCUGGCGCCCGCAGGGCAACAUUCCGAGGGGACCGUCCCCUCGGUAAUGGCGAAUGGGACCCA	0.297
GGCCGGUAUGGUCCCAGCCUCCUCGCUGGCGCCGGCUGGGCAACAUUCCGAGGGGACCGUCCCCUCGGUAAUGGCGAAUGGUACCCA	0.0678
GGCCGGCGUGGUCCCAGCCUCCUCGCUGGCGCCGGCUGGGCAACAUUCCGAGGGGACCGUCCCCUAGGUAAUGGCGAAUGGGACCCA	0.886
GGCCGGCAUGGUCCCAGCCUCCUCGCUGGCGCCGGCUGGGCAACAUUCCGAGGGGACCGUCUUCUCGGUAAUGGCGAAUGGGACCCA	1.11
GGCCGGCAUGGUCCCAACCACCUCGCUGGCGCCGGCUGGGCAACAUUCCGAGGGGACCGUCCCCUCGGUAAUGGCGAAUGGGACCCA	0.253
GGCCGGCAUGGGCCCAGCCUCCUCGCUGGCGCCGGCUGGGCAACAUUCCGAGGGGACCGUCCCCUCGGUAAUGGCGAAUUGGACCCA	0.534
GGCCGGCAUGGUCCCAGCCUCCUCGCGGGCGCCGGCUGGGCAACAUUCCGAGGGGACCGUCCCCUCGAUAAUGGCGAAUGGGACCCA	0.858
GGCUGGCAUGGUCCCAGCCUCCUGGCUGGCGCCGGCUGGGCAACAUUCCGAGGGGACCGUCCCCUCGGUAAUGGCGAAUGGGACCCA	0.0678
GGCCGGCAUGGUCCCAGCCUCCGCGCUGGCGCCGGCUGGGCAACAUUCCGAGGGGGCCGUCCCCUCGGUAAUGGCGAAUGGGACCCA	0.787

Variant	self-cleavage
AGCCGGCAUGGUCCCAGCCUCCUCGCUGGCGCCGGCUGGGCACCAUUCCGAGGGGACCGUCCCCUCGGUAAUGGCGAAUGGGACCCA	0.0415
GGCCGGCAUGGUCCAAGCCUCCUCGCUGGCGCCGGCUGGGCAACAUUCCGAGGGGACCGUCCCCUUGGUAAUGGCGAAUGGGACCCA	0.909
GGCCGGCAUGGUCCCAGCCUCCUCGCUGGCGACGGCUGGGCAACAUUCCGAGGGGACCGUCCCCUAGGUAAUGGCGAAUGGGACCCA	0.181
GGCCGGCAUGGUCCCAGCCUCCUCGCUGGCGCCGGGUGGGCAACAUUUCGAGGGGACCGUCCCCUCGGUAAUGGCGAAUGGGACCCA	0.231
GGCCGGUAUGGUCCUAGCCUCCUCGCUGGCGCCGGCUGGGCAACAUUCCGAGGGGACCGUCCCCUCGGUAAUGGCGAAUGGGACCCA	0.674
UGCCGGCAUGGUCCCAGCCUCCUCGCUGUCGCCGGCUGGGCAACAUUCCGAGGGGACCGUCCCCUCGGUAAUGGCGAAUGGGACCCA	0.308
GGCCGGCAUGGUCCCAGCCUCAUCGCUGGCGCCGGCUGGGCAACAUUCCGAGGGGACCGUCCCCUCGGUAAUGGCCAAUGGGACCCA	0.447
GGCCGGCAUGGUCCCAGCCUCCUCGCUGGCGCCGGCUGGGCAACAUUCCGAGGGGACCGUCCCCUCGGUAAUGGCGCAUGGGUCCCA	0.312
GGCCGGCAUGGUCCCAGCCUCCUCGCUGGCGCCGGCUGGUCAACAUUCCGAGGGGACCGUCCCCUUGGUAAUGGCGAAUGGGACCCA	0.753
GACCGGCAUGGUCCCAGCCUCCUCGUUGGCGCCGGCUGGGCAACAUUCCGAGGGGACCGUCCCCUCGGUAAUGGCGAAUGGGACCCA	0.138
GGCCGGCAUGGUCCCAGCCCCCUCGCUGGCGCCGGCUGGGCAACAUUCCGAGGGGUCCGUCCCCUCGGUAAUGGCGAAUGGGACCCA	0.266
GGCCGGCAUGGUCCCAGCCUCCUUGCUGGCGCCGGCUGGGCAACAUUCAGAGGGGACCGUCCCCUCGGUAAUGGCGAAUGGGACCCA	0.739
GGCCGGCAUGGACCCAGCCUCCUCGCUGGCGCCGGCUGGGCAACAUUCCGAGGGGACCGUCCCCUCAGUAAUGGCGAAUGGGACCCA	0.383
GGCCGGCAUGGUCCCAGCCUCCUCGCUGGCGCCGGCUGGGCAACAUUCCGAUGGGACCGUCCUCUCGGUAAUGGCGAAUGGGACCCA	1
GGCCGGCAUGGUCCCAGCCUCCUCGCUGGCGCCGGCUGGGCAAAAUUCCGAGGGGACCGUCCGCUCGGUAAUGGCGAAUGGGACCCA	0.831
GGCCGGCAUGGUCCCAGCCUCCUCGCUGGCGCCGGCCGGGCAACAUUCCGAGGUGACCGUCCCCUCGGUAAUGGCGAAUGGGACCCA	1.02
UGCCGGCAUGGUCCCAGCCUCCUCGCUGGCGCCGGCUGGGCAACAUUCCGAGGGGACCGUCCCCUCGGUAAUGGUGAAUGGGACCCA	0.321
GGCCGGCAUGAUCCCAGCCUCCUCGCUGGCGCCGGCUGGGCAACAUUCCGAGGGGACCGGCCCCUCGGUAAUGGCGAAUGGGACCCA	0.399
GGCCGGCAUGGUCCCAGCCUCCUCGCUGGCGCCGGCUGGGCAACAUUCCGAGGGGACCGUACUCUCGGUAAUGGCGAAUGGGACCCA	1.07
GGCCGGCAUGGUCCCAGCCUCCUCGCUGCCGCCAGCUGGGCAACAUUCCGAGGGGACCGUCCCCUCGGUAAUGGCGAAUGGGACCCA	0
